Laboratory results: paper doi:10.1101/705459 (bioRxiv, 2019)

T1: CMG2-GST-biotin (human CMG2 vWA domain 40-217, [change], [change], GST fusion, biotin-labelled) (human, UniProt P58335 40-217)
T1 chain: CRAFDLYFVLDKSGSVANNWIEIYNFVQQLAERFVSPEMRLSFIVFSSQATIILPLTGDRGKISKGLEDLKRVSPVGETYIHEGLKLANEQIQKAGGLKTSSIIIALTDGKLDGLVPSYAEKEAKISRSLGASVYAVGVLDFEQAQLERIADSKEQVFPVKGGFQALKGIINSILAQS

T2: CMG2-488 (human CMG2 vWA domain 40-217, [change], [change], AlexaFluor 488) (human, UniProt P58335 40-217)
T2 chain: T1 chain

B1: CMG2-biotin (human CMG2 vWA domain 40-217, [change], [change], biotin-labelled) (domain or fragment)
chain: T1 chain
B2: Peptide U12 (canstatin-derived 15-mer) (peptide)
peptide: VSIGYLLVKHSQTDQ
B3: Peptide S16 (canstatin-derived 15-mer) (peptide)
peptide: PAIAIAVHSQDVSIP

Columns and labels:
[1] = biological target: B3; test: peptide or protein array
[2] = biological target: B2; test: peptide or protein array
[3] = biological target: T1, CMG2-GST-biotin (human CMG2 vWA domain …); test: BLI
[4] = biological target: T2, CMG2-488 (human CMG2 vWA domain 40-217, …); test: FRET or BRET

Binder	binding result [1]	binding result [2]	Kd [3]	IC50 [4]	koff [3]	kon [3]	Kd [4]
B1	binds	binds					
B2			80 µM	35 µM			
B3			0.4 µM	2.7 µM	~0.0001 s⁻¹	~200 M⁻¹ s⁻¹	0.1 ± 0.055 µM
